Substrate in series [1]: O=[N+]([O-])c1ccc(O[C@@H]2O[C@H](CO)[C@@H](O[C@@H]3O[C@H](CO)[C@H](O)[C@H](O)[C@H]3O)[C@H](O)[C@H]2O)c(Cl)c1
In words: Michaelis-Menten kinetic constants on CNPLac. Type of series: biochemical, Chaetomium thermophilum. The settings on record: other: Ct Cel7A, 50 mM sodium phosphate pH 5.7, 22° C. How it is done:
(§1) The Michaelis-Menten and cellobiose inhibition constants were determined from the cellobiohydrolases produced heterologously in T. reesei (Examples 14 and 15). The enzymes were purified as described in Example 2. Protein concentrations of purified enzymes were measured by their absorption at 280 nm using a theoretical molar extinction co-efficient, which were calculated from the amino acid sequences (Gill and von Hippel, 1989).
(§2) Kinetic constants (Km and kcat values) and cellobiose inhibition constant (Ki) for Tr CBHI/Cel7A, Ta CBH/Cel7A, At CBH/Cel7A and Ct CBH/Cel7A, were measured using CNPLac (2-Chloro-4-nitrophenyl-β-D-lactoside) as substrate at ambient temperature (22° C.) in 50 mM sodium phosphate buffer, pH 5.7. For the determination of the inhibition constant (Ki), eight different substrate concentrations (31-4000 μM) in the presence of a range of five inhibitor concentrations (0-100 μM or 0-400 μM), which bracket the Ki value, were used. All experiments were performed in microtiter plates and the total reaction volume was 200 μl. The initial rates were in each case measured by continuous monitoring the release of the chloro-nitrophenolate anion (CNP, 2-Chloro-4-nitrophenolate) through measurements at 405 nm using Varioscan (Thermolabsystems) microtiter plate reader. The results were calculated from CNP standard curve (from 0 to 100 μM). Enzyme concentrations used were: Tr CBHI/Cel7A 2.46 μM, Ta CBH/Cel7A 1.58 μM, Ct CBH/Cel7A 0.79 μM and At CBH/Cel7A 3 μM. The Km and kcat constants were calculated from the fitting of the Michaelis-Menten equation using the programme of Origin. Lineweaver-Burk plots, replots (LWB slope versus [Glc2; cellobiose]) and Hanes plots were used to distinguish between competitive and mixed type inhibition and to determine the inhibition constants (Ki).

A short description of series [2]: Hydrolysis with CBH enzyme mixtures, corn stover. Type of series: biochemical. The settings on record: additional enzymes EGII, bG, 48 h, 45° C., pH 5.0. How it is done: (§3) The performance of the purified recombinant cellobiohydrolases was evaluated in the hydrolysis studies with purified T. reesei enzymes. Hydrolysis was carried out with controlled mixtures of purified enzymes on several pre-treated substrates. […] In addition, pure T. reesei cellulases (purified as described by Suurnäkki et al., 2000) were used in the enzyme mixtures. The cellobiohydrolases used in the experiment were:
(§4) Each CBH/Cel7 to be tested (dosage 14.5 mg/g dry matter of substrate) was used either together with EGII/Cel5A of T. reesei (3.6 mg/g) or with a mixture containing T. reesei EGI/Cel7B (1.8 mg/g), EGII/Cel5A (1.8 mg/g), xylanase pI 9 (Tenkanen et al. 1992) (5000 nkat/g) and acetyl xylan esterase (AXE) (Sundberg and Poutanen, 1991) (250 nkat/g). All mixtures were supplemented with additional β-glucosidase from a commercial enzyme preparation Novozym 188 (176 nkat/g d.w.). Triplicate tubes containing the enzyme mixture and 10 mg (dry matter)/ml of the substrate suspended in 0.05 M sodium acetate were incubated in mixing by magnetic stirring at 45° C. for 48 h. Reference samples with inactivated enzymes and corresponding substrates were also prepared. The release of hydrolysis products was measured as reducing sugars with DNS method using glucose as standard (Table 30).
Washed wet oxidized corn stover fibre (WOCS).

Series [3] is described as follows: Hydrolysis with CBH enzyme mixtures, willow. Type of series: biochemical. The following applies: additional enzymes EGII, bG, 48 h, 45° C., pH 5.0. How it is done: as §3, §4
Washed steam pre-treated willow fibre (pre-treatment for 14 min at 210° C.), dry matter 23.0% (WILLOW).

A short description of series [4]: Hydrolysis with CBH enzyme mixtures, spruce. It is filed as biochemical. The following applies: additional enzymes EGII, bG; 48 h, 45° C., pH 5.0. How it is done: as §3, §4
Washed steam pre-treated spruce fibre (impregnation with 3% w/w SO2 for 20 min, followed by steam pre-treatment at 215° C. for 5 min), dry matter 25.9% (SPRUCE).

Series [5] can be described thus: pH optimum of recombinant CBH/Cel7 proteins. Type of series: biochemical. The following applies: McIlvaine buffer, pH range 3.0-8.0, MUL, 50° C., 10 min. How it is done: The recombinant CBH/Cel7 enzyme preparations were characterized in terms of pH optimum and thermal stability. The pH optimum of the recombinant CBH/Cel7 proteins from Thermoascus aurantiacus, Chaetomium thermophilum, and Acremonium thermophilum were determined in the universal McIlvaine buffer within a pH range of 3.0-8.0 using 4-methylumbelliferyl-β-D-lactoside (MUL) as a substrate (FIG. 3A). The pH optimum for Ct Cel7A and At Cel7A enzymes is at 5.5, above which the activity starts to gradually drop. The pH optimum of the recombinant crude Ta Cel7A is at 5.0 (FIG. 3A). Thermal stability of the recombinant Cel7 enzymes was determined by measuring the MUL activity in universal McIlvaine buffer at the optimum pH with reaction time of 1 h.

Series [6] can be described thus: Hydrolysis with CBH enzyme mixtures, Avicel. It is filed as biochemical. The settings on record: additional enzymes EGII, bG; 48 h, 45° C., pH 5.0. How it is done:
as §3, §4
Crystalline cellulose (Avicel)

Series [7] in a line: Xylanase activity on birch xylan. It is filed as biochemical. How it is done: (§5) The specific activity of the preparations was determined using 4-methylumbelliferyl-β-D-lactoside (MUL), 4-methylumbelliferyl-β-D-cellobioside (MUG2) or 4-methylumbelliferyl-β-D-cellotrioside (MUG3) as substrate (van Tilbeurgh et al., 1988) in 0.05 M sodium citrate buffer pH 5 at 50° C. for 10 min. Endoglucanase and xylanase activities were determined by standard procedures (according to IUPAC, 1987) using carboxymethyl cellulose (CMC) and birch glucuronoxylan (Bailey et al., 1992) as substrates. Specific activity against Avicel was calculated on the basis of reducing sugars formed in a 24 h reaction at 50° C., pH 5.0, with 1% substrate and 0.25 μM enzyme dosage. The protein content of the purified enzyme preparations was measured according to Lowry et al., 1951. To characterize the end products of hydrolysis, soluble sugars liberated in 24 h hydrolysis experiment, as described above, were analysed by HPLC (Dionex). Purified cellobiohydrolase I (CBHI/Cel7A) of Trichoderma reesei was used as a reference.
Acremonium thermophilum ALKO4245 was grown as described in Example 1. The culture supernatant was incubated at 70° C. for 24 hours after which, it was concentrated by ultrafiltration. The pure xylanase was obtained by sequential purification with hydrophobic interaction and cation exchange chromatography followed by gel filtration. The xylanase activity was determined using birch xylan as substrate (procedure of IUPAC 1987). Protein was assayed by BioRad Protein Assay Kit (Bio-Rad Laboratories) using bovine serum albumin as standard.
Thermoascus aurantiacus ALKO4242 was grown as described in Example 1. The pure xylanase was obtained by sequential purification with hydrophobic interaction, anion, and cation exchange chromatography followed by gel filtration. The xylanase activity was determined using birch xylan as substrate (procedure of IUPAC 1987). Protein was assayed by BioRad Protein Assay Kit (Bio-Rad Laboratories) using bovine serum albumin as standard.

The nature of series [8]: Specific activity on MUG2. It is filed as biochemical. The settings on record: purified xylanase, 50° C. pH 5.0 10 min. How it is done: as §5
Series [9] can be described thus: Specific activity on MUG3. Type of series: biochemical. The settings on record: purified xylanase, 50° C. pH 5.0 10 min. How it is done: as §5
Another series in a line: Specific activity on MUL. It is filed as biochemical. The settings on record: purified xylanase, 50° C. pH 5.0 10 min. How it is done:
as §5

Substrate in series [10]: O=[N+]([O-])c1ccc(O[C@@H]2O[C@H](CO)[C@@H](O[C@@H]3O[C@H](CO)[C@H](O)[C@H](O)[C@H]3O)[C@H](O)[C@H]2O)c(Cl)c1
In words: Michaelis-Menten kinetic constants on CNPLac. The settings on record: other: Tr Cel7A, 50 mM sodium phosphate pH 5.7, 22° C. It is filed as biochemical, Trichoderma reesei. How it is done: as §1, §2

B1: Chaetomium thermophilum ALKO4265 cellobiohydrolase Ct Cel7A (Ct CBH/Cel7A), recombinant, SEQ ID NO: 8 (Thermochaetoides thermophila) (protein)
chain: QQACSLTAENHPSLTWKRCTSGGSCSTVNGAVTIDANWRWTHTVSGSTNCYTGNQWDTSLCTDGKSCAQTCCVDGADYSSTYGITTSGDSLNLKFVTKHQYGTNVGSRVYLMENDTKYQMFELLGNEFTFDVDVSNLGCGLNGALYFVSMDADGGMSKYSGNKAGAKYGTGYCDAQCPRDLKFINGEANVGNWTPSTNDANAGFGRYGSCCSEMDVWEANNMATAFTPHPCTTVGQSRCEADTCGGTYSSDRYAGVCDPDGCDFNAYRQGDKTFYGKGMTVDTNKKMTVVTQFHKNSAGVLSEIKRFYVQDGKIIANAESKIPGNPGNSITQEYCDAQKVAFSNTDDFNRKGGMAQMSKALAGPMVLVMSVWDDHYANMLWLDSTYPIDQAGAPGAERGACPTTSGVPAEIEAQVPNSNVIFSNIRFGPIGSTVPGLDGSNPGNPTTTVVPPASTSTSRPTSSTSSPVSTPTGQPGGCTTQKWGQCGGIGYTGCTNCVAGTTCTQLNPWYSQCL
The Km is the substrate concentration at which the rate is half of its maximum. For orientation: kcat means the number of substrate molecules converted per active site and unit of time at saturation. One may read the kcat/Km as the second-order rate constant that governs catalysis at low substrate concentration. As for B1, in [1], the Km was 1960 µM, the catalytic constant (kcat) amounted to 0.313 s⁻¹ and the kcat/Km was 158 M⁻¹ s⁻¹.

B2: Ta Cel7A: cellobiohydrolase of Thermoascus aurantiacus ALKO4242, gene Ta cel7A, amino acid SEQ ID NO: 2, no CBD (protein)
chain: MYQRALLFSFFLAAARAQQAGTVTAENHPSLTWQQCSSGGSCTTQNGKVVIDANWRWVHTTSGYTNCYTGNTWDTSICPDDVTCAQNCALDGADYSGTYGVTTSGNALRLNFVTQSSGKNIGSRLYLLQDDTTYQIFKLLGQEFTFDVDVSNLPCGLNGALYFVAMDADGGLSKYPGNKAGAKYGTGYCDSQCPRDLKFINGQANVEGWQPSANDPNAGVGNHGSCCAEMDVWEANSISTAVTPHPCDTPGQTMCQGDDCGGTYSSTRYAGTCDPDGCDFNPYRQGNHSFYGPGQIVDTSSKFTVVTQFITDDGTPSGTLTEIKRFYVQNGKVIPQSESTISGVTGNSITTEYCTAQKAAFGDNTGFFTHGGLQKISQALAQGMVLVMSLWDDHAANMLWLDSTYPTDADPDTPGVARGTCPTTSGVPADVESQYPNSYVIYSNIKVGPINSTFTAN
Take B2: the “Hydrolysis products as reducing sugars, WOCS” value amounted to 4.3 mg/mL in series [2] (EGI, XYL, AXE) and 2.8 mg/mL in series [2]. Besides, the “Hydrolysis products as reducing sugars, WILLOW” value in series [3] (EGI, XYL, AXE) amounted to 2.8 mg/mL; in [3], 2.0 mg/mL. Also, in [4], the “Hydrolysis products as reducing sugars, SPRUCE” value was found to be 2.0 mg/mL. In addition, the pH optimum in [5] is reported as 5.0. Besides, in series [6], the “Hydrolysis products as reducing sugars, Avicel” value came to 2.0 mg/mL.

B3: At XYN_60: xylanase of Acremonium thermophilum ALKO4245, gene At xyn10A, amino acid SEQ ID NO: 20 (protein)
chain: MRAKQLLAAGLLAPASVSAQLNSLAVAAGLKYFGTAVREANVNGDATYMSYVNNKSEFGQVTPENGQKWDSTEPSQGQFSYSQGDIVPGVAKKNGQVLRCHTLVWYSQLPSWVSSGSWTRATLQSVIETHISNVMGHYKGQCYAWDVVNEAINDDGTWRTSVFYNTFNTDYLAIAFNAAKKADAGAKLYYNDYNLEYNGAKTNTAVQLVQIVQQAGAPIDGVGFQGHLIVGSTPSRSSLATALKRFTALGLEVAYTELDIRHSSLPPSSAALATQGNDFASVVGSCLDVAGCVGITIWGFTDKYSWVPDTFPGSGAALLYDANYSKKPAWTSVSSVLAAKATNPPGGGNPPPVTTTTTTTTTSKPSQPTTTTTTTSPQGPQQTHWGQCGGIGWTGPQSCQSPWTCQKQNDWYSQCL
Consider B3, for which, in [7] (10 min, pH 5.0), the “Relative activity at 60° C. as compared to 50° C.” value was “about 1.2 fold” and the “Relative activity at 70° C. as compared to 50° C.” value is listed as around 1.65 fold. Also, the “Specific activity on birch xylan” value in series [7] (purified xylanase, 50° C., procedure of IUPAC 1987) was 1800 nkat/mg. The “Specific activity against MUG2” value in [8] came to 54 nkat/mg. In [9], the “Specific activity against MUG3” value was determined as 78 nkat/mg. In addition, the “Specific activity against MUL” value in the series “Specific activity on MUL” was 33 nkat/mg.

B4: Trichoderma reesei cellobiohydrolase I Tr Cel7A (Tr CBHI/Cel7A) (Trichoderma reesei RUT C-30) (protein)
chain: QSACTLQSETHPPLTWQKCSSGGTCTQQTGSVVIDANWRWTHATNSSTNCYDGNTWSSTLCPDNETCAKNCCLDGAAYASTYGVTTSGNSLSIGFVTQSAQKNVGARLYLMASDTTYQEFTLLGNEFSFDVDVSQLPCGLNGALYFVSMDADGGVSKYPTNTAGAKYGTGYCDSQCPRDLKFINGQANVEGWEPSSNNANTGIGGHGSCCSEMDIWEANSISEALTPHPCTTVGQEICEGDGCGGTYSDNRYGGTCDPDGCDWNPYRLGNTSFYGPGSSFTLDTTKKLTVVTQFETSGAINRYYVQNGVTFQQPNAELGSYSGNELNDDYCTAEEAEFGGSSFSDKGGLTQFKKATSGGMVLVMSLWDDYYANMLWLDSTYPTNETSSTPGAVRGSCSTSSGVPAQVESQSPNAKVTFSNIKFGPIGSTGNPSGGNPPGGNPPGTTTTRRPATTTGSSPGPTQSHYGQCGGIGYSGPTVCASGTTCQVLNPYYSQCL
With B4, in series [10], the Km is 520 µM, the catalytic constant (kcat) amounted to 0.0433 s⁻¹ and the catalytic efficiency (kcat/Km) came to 83.3 M⁻¹ s⁻¹.

Values taken from patent US8409836B2, “Treatment of cellulosic material and enzymes useful therein” (Roal Oy, priority 2005, dated 2013).
